These results are taken from paper PMC2217618 (Apoptosis, 2007).

This test deals with αvβ3 integrin (human (endogenous in HUVEC), UniProt P06756;P05106). Description: radioligand binding.

[ ]: non-standard residue; d: D form.

Chain of αvβ3 integrin (P06756 31-1048, chain 1 of 2): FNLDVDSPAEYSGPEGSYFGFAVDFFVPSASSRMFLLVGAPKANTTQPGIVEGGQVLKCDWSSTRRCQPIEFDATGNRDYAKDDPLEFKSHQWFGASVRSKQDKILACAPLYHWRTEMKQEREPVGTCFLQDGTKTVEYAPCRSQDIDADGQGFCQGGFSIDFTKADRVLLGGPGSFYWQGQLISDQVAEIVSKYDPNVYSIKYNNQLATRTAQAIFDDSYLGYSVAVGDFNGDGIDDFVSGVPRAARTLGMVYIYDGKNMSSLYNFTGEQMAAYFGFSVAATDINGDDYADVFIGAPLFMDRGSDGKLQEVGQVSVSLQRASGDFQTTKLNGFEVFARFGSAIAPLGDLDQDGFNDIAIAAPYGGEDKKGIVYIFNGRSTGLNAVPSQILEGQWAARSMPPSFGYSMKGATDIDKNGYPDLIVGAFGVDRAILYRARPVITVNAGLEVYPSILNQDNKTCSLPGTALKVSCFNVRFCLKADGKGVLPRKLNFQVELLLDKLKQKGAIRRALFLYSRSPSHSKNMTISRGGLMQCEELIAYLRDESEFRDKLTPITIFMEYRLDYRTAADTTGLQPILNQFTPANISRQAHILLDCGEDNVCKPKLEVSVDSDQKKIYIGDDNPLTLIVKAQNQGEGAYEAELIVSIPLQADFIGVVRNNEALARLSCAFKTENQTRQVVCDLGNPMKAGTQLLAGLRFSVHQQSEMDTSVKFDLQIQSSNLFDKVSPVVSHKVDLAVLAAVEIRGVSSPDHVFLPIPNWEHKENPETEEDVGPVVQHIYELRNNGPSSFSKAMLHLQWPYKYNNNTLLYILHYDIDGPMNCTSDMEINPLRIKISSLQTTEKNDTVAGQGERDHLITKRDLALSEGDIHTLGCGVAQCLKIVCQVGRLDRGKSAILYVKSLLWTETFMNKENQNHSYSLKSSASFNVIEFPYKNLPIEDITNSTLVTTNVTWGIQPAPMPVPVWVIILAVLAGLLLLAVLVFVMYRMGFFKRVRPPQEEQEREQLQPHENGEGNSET
Chain of αvβ3 integrin (P05106 27-788, chain 2 of 2): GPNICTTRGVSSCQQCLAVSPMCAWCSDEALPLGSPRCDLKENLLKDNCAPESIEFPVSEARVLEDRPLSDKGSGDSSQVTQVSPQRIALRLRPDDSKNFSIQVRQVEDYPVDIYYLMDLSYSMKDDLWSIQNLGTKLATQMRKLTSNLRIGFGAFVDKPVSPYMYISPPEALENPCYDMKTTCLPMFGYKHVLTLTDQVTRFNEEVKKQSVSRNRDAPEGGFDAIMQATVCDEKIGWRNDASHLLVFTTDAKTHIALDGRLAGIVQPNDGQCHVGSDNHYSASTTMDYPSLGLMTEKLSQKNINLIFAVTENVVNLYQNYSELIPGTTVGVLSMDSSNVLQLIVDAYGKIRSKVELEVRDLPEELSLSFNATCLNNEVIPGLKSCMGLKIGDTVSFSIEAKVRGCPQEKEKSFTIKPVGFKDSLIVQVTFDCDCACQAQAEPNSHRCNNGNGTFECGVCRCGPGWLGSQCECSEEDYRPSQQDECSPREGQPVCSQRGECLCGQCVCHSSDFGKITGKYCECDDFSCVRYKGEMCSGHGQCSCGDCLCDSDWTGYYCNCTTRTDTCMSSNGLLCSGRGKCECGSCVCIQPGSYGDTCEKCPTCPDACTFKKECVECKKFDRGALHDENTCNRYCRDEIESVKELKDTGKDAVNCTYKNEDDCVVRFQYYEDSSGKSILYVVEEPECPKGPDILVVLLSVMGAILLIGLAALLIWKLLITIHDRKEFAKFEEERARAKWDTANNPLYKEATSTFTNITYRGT

Take cyclo(RGD[dF]K(S‑acetylthioacetyl)) [RGD peptide c(RGDf(ε-S-acetylthioacetyl)K)]: the IC50 was 383 nM.
